The values that follow come from patent US6884600 (MEDICAL RESEARCH COUNCIL LONDON, dated 2005).

B1: β isoform of PP1c released from rabbit skeletal muscle PP1G (enzyme, UniProt P62143 2-327, looked up)
chain: ADGELNVDSLITRLLEVRGCRPGKIVQMTEAEVRGLCIKSREIFLSQPILLELEAPLKICGDIHGQYTDLLRLFEYGGFPPEANYLFLGDYVDRGKQSLETICLLLAYKIKYPENFFLLRGNHECASINRIYGFYDECKRRFNIKLWKTFTDCFNCLPIAAIVDEKIFCCHGGLSPDLQSMEQIRRIMRPTDVPDTGLLCDLLWSDPDKDVQGWGENDRGVSFTFGADVVSKFLNRHDLDLICRAHQVVEDGYEFFAKRQLVTLFSAPNYCGEFDNAGGMMSVDETLMCSFQILKPSEKKAKYQYGGLNSGRPVTPPRTANPPKKR
notes: mature; also called PP1 catalytic subunit
B2: M21-(M1-E110), released from GST with thrombin (other)
chain: MSSLFTRSKEYTRSRKSQSDSPPSSPSPIAKTLRHERLSRLEAATTPATSDSYSDRASSRSSAYSRRENRLAALSSRAEEESNRDYKKLYESALSENQKLKSKLQEAQLEA
notes: not shown: the few vector residues left at the N terminus after thrombin cleavage of the modified pGEX fusion
B3: M110-(M1-E309), released from GST with thrombin (other)
chain: GSPGMKMADAKQKRNEQLKRWIGSETDLEPPVVKRQKTKVKFDDGAVFLAACSSGDTDEVLKLLHRGADINYANVDGLTALHQACIDDNVDMVKFLVENGANINQPDNEGWIPLHAAASCGYLDIAEFLIGQGAHVGAVNSEGDTPLDIAEEEAMEELLQNEVNRQGVDIEAARKEEERIMLRDARQWLNSGHISDVRHAKSGGTALHVAAAKGYTEVLKLLIQAGYDVNIKDYDGWTPLHAAAHWGKEEACRILVDNLCDMETVNKVGQTAFDVADEDILGYLEELQKKQNLLHSEKRDKKSPLIESTANMEA
notes: Rat aorta M110 fragment; free GST was left in the solution after cleavage; also called M100-(M1-E309)
B4: M110 subunit of chicken gizzard PP1M, full length (other)
chain: MKMADAKQKRNEQLKRWIGSETDLEPPVVKRKKTKVKFDDGAVFLAACSSGDTEEVLRLLERGADINYANVDGLTALHQACIDDNVDMVKFLVENGANINQPDNEGWIPLHAAASCGYLDIAEYLISQGAHVGAVNSEGDTPLDIAEEEAMEELLQNEVNRQGVDIEAARKEEERIMLRDARQWLNSGHINDVRHAKSGGTALHVAAAKGYTEVLKLLIQARYDVNIKDYDGWTPLHAAAHWGKEEACRILVENLCDMEAVNKVGQTAFDVADEDILGYLEELQKKQNLLHSEKREKKSPLIESTANLDNNQTQKTFKNKETLIMEQEKNASSIESLEHEKADEEEEGKKDESSCSSEEEEDDDSESEAETDKAKTLANANTTSTQSASMTAPSVAGGQGTPTSPLKKFPTSTTKVSPKEEERKDESPASWRLGLRKTGSYGALAEITASKEAQKEKDSAGVIRSASSPRLSSSLDNKEKEKDGKGTRLAYVAPTIPRRLASTSDIDEKENRDSSASSIRSGSSYARRKWEEDVKKNSLNEGPTSLNTSYQRSGSFGRRQDDLVSSNVPSTASTVTSSAGLQKTLPASANTTTKSTTGSTSAGVQSSTSNRLWAEDSTEKEKDSVPTAVTVPVAPSVVNAAATTTAMTTATSGTVSSTSEVRERRRSYLTPVRDEESESQRKARSRQARQSRRSTQGVTLTDLQEAEKTIGRSRSTRTREQENEEKEKEEKEKQDKEKQEEKKESETKDDDYRQRYSRTVEEPYHRYRPTSTSTSTSSTSSLSTSTSSLSSSSQLNRPNSLIGITSAYSRSGTKESEREGGKKEEEKEEDKSQPKSIRERRRPREKRRSTGVSFWTQDSDENEQEHQSDSEEGTNKKETQSDSLSRYDTGSLSVSSGDRYDSAQGRSGSQSYLEDRKPYCSRLEKEDSTDFKKLYEQILAENEKLKAQLHDTNMELTDLKLQLEKTTQRQERFADRSLLEMEKRVSGKSQYLLGGKKSSRKKDI
notes: Native subunit, met as the M110 band of blotted PP1M or inside PP1M; also called 110 kDa subunit; Ch1

The target of test [1] is T1, myosin from chicken gizzard, dephosphorylated form (chicken, UniProt P10587 2-1979; P02612 2-172; P02607 2-151).
T1 construct: mature; Native protein pelleted by centrifugation; 1 µM in terms of heavy chains; also called myosin dimer
In words: co-sedimentation with myosin, phosphatase activity in pellet and supernatant. As for the experimental part:
(§1) The PP1 catalytic subunit (PP1c), PP1_M, or PP1_M lacking the $M21$ subunit, $PP1_M(\Delta M21)$, each at 30 nM, were incubated for 15 min at 0° C. with 1 μM myosin and centrifuged (see Methods of Example 3). […] The results shown are the average (±S.E.M.) for three separate experiments each assayed in duplicate.
(§2) Myosin binding assays. Myosin (0.5 mg/ml, 1 µM in terms of myosin heavy chains) in 10 mM Hepes pH 7.5, 50 mM KCl, 5 mM MgCl2, 0.1% (by vol) 2-mercaptoethanol, was mixed with PP1_M, M$21$ subunit, or fragments of the M$110$ and M$21$ subunits, at the concentrations indicated in figure legends. After incubation for 15 min at 0° C., the solutions were centrifuged for 2 min at 13,000×g, the supernatants removed, and the pellets washed twice in 10 mM Hepes pH 7.5, 50 mM KCl, 5 mM MgCl2, 0.1% (by vol) 2-mercaptoethanol before resuspension in 50 mM Tris-HCl pH 7.5, 0.1 mM EGTA, 0.03% (by mass) Brij 35, 0.6 M NaCl, 0.1% (by vol) 2-mercaptoethanol. Aliquots of the supernatant, the resuspended pellet and the suspension before centrifugation were either assayed for myosin P-light chain phosphatase activity or denatured in SDS and analysed by SDS/polyacrylamide gel electrophoresis.

A further test addresses T2, MBP-M110-(K933-I1004) (chicken, UniProt Q90623 933-1004, digoxigenin label when used as probe).
T2 construct: also called digoxigenin-labelled MBP-M110-(K933-I1004); digoxigenin-labelled M110-(K933-I1004)
T2 sequence: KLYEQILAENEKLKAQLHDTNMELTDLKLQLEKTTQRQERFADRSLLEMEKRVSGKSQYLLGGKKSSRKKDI
The test is described as follows: Far Western, blot probed with digoxigenin-labelled MBP-M110-(K933-I1004). As for the experimental part: A) GST-$M21$ 5 μg (track 1), $M21$ 5 μg (track 2), $M21$-(M1-L146) 5 μg (track 3), $M21$-(M1-E110) 20 μg (track 4) and $M21$-(E110-K186) 5 μg (track 5) were run on 16.5% polyacrylamide gels and stained with Coomassie Blue. The marker proteins ovalbumin (43 kDa) and carbonic anhydrase (29 kDa) are indicated. B) GST-$M21$ 0.5 μg (track 1), $M21$ 0.5 μg (track 2), $M21$-M1-L146) 0.5 μg (track 3), $M21$-(M1-E110) 5 μg (track 4) and $M21$-(E110-K186) 5 μg (track 5) were electrophoresed as in A) and after transfer to nitrocellulose the blots were probed with digoxigenin-labelled MBP-$M110$-(K933-I1004) (0.2 μg/Ml). C) same as B) except that, after electrophoresis, the proteins were transferred to nitrocellulose and probed with digoxigenin-labelled $M21$ subunit (0.2 μg/ml).

Test [2] concerns the target T1, myosin from chicken gizzard, …. In words: not described in Example 1.
Test [3] concerns the target B1. The test is described as follows: cell-based or functional assay.
The target of test [4] is T1, myosin from chicken gizzard, …. The test is described as follows: co-sedimentation with myosin (as PP1M lacking M21). As for the experimental part: as §1, §2

T1 sequence (P10587 2-1979, chain 1 of 3): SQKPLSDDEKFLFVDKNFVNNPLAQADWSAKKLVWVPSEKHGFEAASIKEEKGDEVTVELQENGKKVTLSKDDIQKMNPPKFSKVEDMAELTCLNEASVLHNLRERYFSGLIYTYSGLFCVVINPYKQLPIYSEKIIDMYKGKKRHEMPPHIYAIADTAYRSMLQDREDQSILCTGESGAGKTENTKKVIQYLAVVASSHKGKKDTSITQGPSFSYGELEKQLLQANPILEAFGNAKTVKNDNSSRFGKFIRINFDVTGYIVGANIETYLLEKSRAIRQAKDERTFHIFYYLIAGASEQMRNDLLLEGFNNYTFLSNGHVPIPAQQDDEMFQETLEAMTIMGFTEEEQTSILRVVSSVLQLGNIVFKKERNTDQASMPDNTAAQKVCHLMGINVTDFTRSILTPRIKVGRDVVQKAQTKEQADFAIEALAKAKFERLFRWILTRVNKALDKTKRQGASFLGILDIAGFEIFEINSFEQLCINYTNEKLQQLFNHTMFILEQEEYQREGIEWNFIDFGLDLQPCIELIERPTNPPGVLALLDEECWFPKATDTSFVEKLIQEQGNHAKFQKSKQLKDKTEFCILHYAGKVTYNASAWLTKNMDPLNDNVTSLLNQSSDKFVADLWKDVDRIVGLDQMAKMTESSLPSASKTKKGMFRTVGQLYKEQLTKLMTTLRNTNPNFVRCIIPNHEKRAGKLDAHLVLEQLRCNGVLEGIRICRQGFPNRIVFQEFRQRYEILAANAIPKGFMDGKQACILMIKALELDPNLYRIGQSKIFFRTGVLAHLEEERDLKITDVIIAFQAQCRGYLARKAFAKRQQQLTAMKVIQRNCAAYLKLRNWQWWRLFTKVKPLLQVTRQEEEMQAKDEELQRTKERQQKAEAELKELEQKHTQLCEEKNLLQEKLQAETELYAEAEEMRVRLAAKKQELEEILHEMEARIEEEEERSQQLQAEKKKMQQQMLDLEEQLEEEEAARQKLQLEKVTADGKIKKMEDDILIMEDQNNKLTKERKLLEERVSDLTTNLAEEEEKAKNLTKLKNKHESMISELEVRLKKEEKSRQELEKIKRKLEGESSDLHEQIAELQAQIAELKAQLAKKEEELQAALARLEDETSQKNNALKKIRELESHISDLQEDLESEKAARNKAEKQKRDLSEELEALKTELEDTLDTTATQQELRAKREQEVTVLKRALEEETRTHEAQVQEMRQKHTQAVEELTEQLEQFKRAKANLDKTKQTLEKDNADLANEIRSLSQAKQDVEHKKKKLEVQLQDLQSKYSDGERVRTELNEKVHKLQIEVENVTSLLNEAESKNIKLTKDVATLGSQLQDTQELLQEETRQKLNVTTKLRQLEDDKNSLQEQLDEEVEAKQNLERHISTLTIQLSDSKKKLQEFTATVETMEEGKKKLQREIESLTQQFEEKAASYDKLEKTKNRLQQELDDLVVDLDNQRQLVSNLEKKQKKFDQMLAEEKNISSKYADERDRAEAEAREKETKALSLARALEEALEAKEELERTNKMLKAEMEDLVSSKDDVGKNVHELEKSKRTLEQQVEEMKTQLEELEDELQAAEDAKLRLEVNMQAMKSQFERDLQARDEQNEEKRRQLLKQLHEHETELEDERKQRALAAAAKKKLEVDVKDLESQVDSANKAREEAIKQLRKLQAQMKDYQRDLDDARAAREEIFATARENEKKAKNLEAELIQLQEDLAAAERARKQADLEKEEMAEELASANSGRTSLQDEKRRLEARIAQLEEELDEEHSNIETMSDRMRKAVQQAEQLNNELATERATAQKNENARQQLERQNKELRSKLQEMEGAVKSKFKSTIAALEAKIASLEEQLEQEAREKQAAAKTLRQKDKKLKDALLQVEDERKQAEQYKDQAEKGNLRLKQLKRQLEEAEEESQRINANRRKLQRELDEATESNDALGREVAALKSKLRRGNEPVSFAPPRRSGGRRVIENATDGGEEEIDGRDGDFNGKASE
T1 sequence (P02612 2-172, chain 2 of 3): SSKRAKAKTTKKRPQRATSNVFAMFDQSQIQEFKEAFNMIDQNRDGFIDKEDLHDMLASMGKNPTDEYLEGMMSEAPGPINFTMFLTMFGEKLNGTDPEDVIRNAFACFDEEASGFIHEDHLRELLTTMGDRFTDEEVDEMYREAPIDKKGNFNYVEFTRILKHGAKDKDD
T1 sequence (P02607 2-151, chain 3 of 3): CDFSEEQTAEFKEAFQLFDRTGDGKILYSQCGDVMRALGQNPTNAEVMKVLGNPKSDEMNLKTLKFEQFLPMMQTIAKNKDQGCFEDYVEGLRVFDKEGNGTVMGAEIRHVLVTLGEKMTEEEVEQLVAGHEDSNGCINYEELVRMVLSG

With B1, the binding result in test [1] is “no binding (tested: 30 nM with 1 µM myosin)”.
With B2, the binding result in the test with MBP-M110-(K933-I1004) is given as “no binding (tested: 0.2 µg/ml probe)”.
Take B3: the binding result in test [2] was “no binding”. Moreover, in test [3], the “MLC20 phosphatase activity of PP1c” value was about 3 fold.
With B4, in test [4], the binding result is “binds”.
